The values that follow are results of earlier work, collected in paper PMC3039521.

A word on the Kd: it is a measure of binding affinity in units of concentration.

The target in the data set is Abl P-x-L-P-x-K motif (UniProt P00519).

With Crk SH3N (from UniProt P46108), the Kd is 1 µM.
